Each block holds one binder with its values, some of them ahead of it. No end group written: not given here.
B1: FLAG-tagged wild-type soluble APRIL (amino acid 105 to 250) (ligand)
chain: AVLTQKQKKQHSVLHLVPINATSKDDSDVTEVMWQPALRRGRGLQAQGYGVRIQDAGVYLLYSQVLFQDVTFTMGQVVSREGQGRQETLFRCIRSMPSHPDRAYNSCYSAGVFHLHQGDILSVIIPRARAKLNLSPHGTFLGFVKL
notes: Used as conditioned medium of transfected 293T cells, not purified; also called WT; WT APRIL; not shown: FLAG tag
B8: mouse TACI-Fc (R&D Systems) (Fc fusion, UniProt Q9ET35 5-129, looked up)
chain: FCPKDQYWDSSRKSCVSCALTCSQRSQRTCTDFCKFINCRKEQGRYYDHLLGACVSCDSTCTQHPQQCAHFCEKRPRSQANLQPELGRPQAGEVEVRSDNSGRHQGSEHGPGLRLSSDQLTLYCT
notes: Bought; also called mTACI-Fc; murine TACI-Fc; not shown: Fc portion of human IgG1
B10: mouse BCMA-Fc (R&D Systems) (Fc fusion, UniProt O88472 2-49, looked up)
chain: AQQCFHSEYFDSLLHACKPCHLRCSNPPATCQPYCDPSVTSSVKGTYT
notes: Bought; also called mBCMA-Fc; murine BCMA-Fc; not shown: Fc portion of human IgG1

Columns and labels:
human TACI-Fc = biological target: T1, human TACI-Fc (human, UniProt O14836 2-160, limits assumed); experiment: SPR (Biacore 2000), FLAG-APRIL captured by anti-FLAG M2, receptor-Fc injected, single cycle kinetics, 1:1 fit
T1 construct: Generated in-house; not shown: Fc portion of human IgG1
T1 sequence (looked up): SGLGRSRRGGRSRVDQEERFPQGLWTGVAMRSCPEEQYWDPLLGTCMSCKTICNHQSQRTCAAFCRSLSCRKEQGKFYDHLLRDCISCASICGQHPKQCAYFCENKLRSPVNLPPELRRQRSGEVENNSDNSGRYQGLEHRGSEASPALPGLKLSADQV
Experimental: (§1) FIG. 10: Surface Plasmon Resonance sensorgrams to illustrate binding of TACI-Fc and BCMA-Fc to WT and R206E-APRIL. Sensorgrams of human (Panel A) and mouse (Panel B) receptors binding to WT and R206E-APRIL. Stepwise increments in the curves represent sequential injections of receptor at the following concentrations: […]. In some cases, no value for affinity was calculated due to a low binding response or high drift.
(§2) In order to further assess the binding properties of the mutants and to measure apparent affinities and kinetics of receptor binding, a Surface Plasmon Resonance based receptor binding assay was performed on a Biacore 2000 (GE Healthcare, Diegem, Belgium). Anti-FLAG-M2 monoclonal antibody (Sigma-Aldrich) was diluted at a concentration of 5 μg/ml in 10 mM sodium acetate pH 4.5 and covalently immobilized (approx 1500 RU) to a CM-5 sensor chip (GE Healthcare), using standard amine coupling chemistry according to manufacturer's guidelines (Amine coupling kit, GE Healthcare). The different FLAG-APRIL variants in the form of tissue culture supernatants were captured onto the chip via the FLAG-tag at 10 μl/minute for five minutes, giving capture levels ranging from 159 to 207 RU. As a reference lane, one of the flow cells was left free of soluble FLAG-APRIL, to control for any background binding. BCMA- or TACI-Fc were then injected for three minutes over all four flow cells at 30 μl/minutes at increasing concentrations (ranging from 1-50 nM) using the single cycle kinetics method at 25° C. Dissociation was monitored for five minutes. The resulting curves were fitted using a 1:1 Langmuir model using BIAevaluation software 4.1. For each combination of FLAG-APRIL and BCMA- or TACI-Fc, the apparent kₐ, kd and KD were calculated from a global fit of binding curves from at least three separate experiments. Non-specific binding in the reference cell was subtracted before curve fitting. Regeneration of the anti-FLAG antibody surface was carried out with a 10-minute injection at 30 μl/minute of a mixture of ⅓ volume of TBS pH 11.5, ⅓ volume of Ionic solution and ⅓ volume of water. The Ionic solution was comprised of KSCN (0.46 M), MgCl₂ (1.83 M), urea (0.92 M) and guanidine-HCl (1.83 M).

[1] = biological target: B10; experiment: receptor-binding ELISA, mouse BCMA-Fc coated, dilution series of conditioned medium, anti-FLAG-HRP, OD 405 nm [TACI selective, Ms BCMA-Fc coated]
Experimental: (§3) The relative binding of the variants to either BCMA or TACI, was tested using a binding ELISA. The following proteins were used: human BCMA-Fc, human TACI-Fc (both generated in-house), mouse BCMA-Fc (R&D Systems, Abingdon, UK), mouse TACI-Fc (R&D Systems); in all cases the Fc portion is from human IgG1. BCMA-Fc and TACI-Fc were coated on 96-well Nunc Maxisorp plates (Thermo Fischer Scientific, Roskilde, Denmark) at concentrations of 1 μg/ml and 2 μg/ml, respectively, in 0.5 M sodium bicarbonate buffer pH 9.5, overnight at 4° C. Plates were then blocked with 5% BSA for one hour at 37° C. Soluble APRIL variants in the form of tissue culture conditioned medium were then added to the plate for two hours at 37° C. Following APRIL binding, plates were washed three times with PBS, 0.05% TWEEN®20. Bound APRIL was detected with 1 μg/ml of HRP-coupled anti-FLAG M2 and visualized with 2,2′-azino-bis(3-ethylbenzothiazoline-6-sulphonic acid (ABTS) (Sigma-Aldrich). The absorbance was read at 405 nm using a UV-VIS microplate reader (BioRad, Veenendaal, The Netherlands).

[2] = biological target: B8; experiment: receptor-binding ELISA, mouse TACI-Fc coated, dilution series of conditioned medium, anti-FLAG-HRP, OD 405 nm [TACI selective, Ms TACI-Fc coated]
Experimental: as §3

[3] = biological target: B1; experiment: SPR (Biacore 2000), FLAG-APRIL captured by anti-FLAG M2, receptor-Fc injected, single cycle kinetics, 1:1 fit
Experimental: as §1, §2

[4] = biological target: B8; experiment: receptor-binding ELISA, mouse TACI-Fc coated [TACI selective, Ms TACI-Fc coated]
Experimental: as §3

Binder: B1
Kd (human TACI-Fc): 3.9 nM
koff (human TACI-Fc): 0.00041 s⁻¹
kon (human TACI-Fc): 110000 M⁻¹ s⁻¹

B2: R233A (ligand)
soluble APRIL monomer: AVLTQKQKKQHSVLHLVPINATSKDDSDVTEVMWQPALRRGRGLQAQGYGVRIQDAGVYLLYSQVLFQDVTFTMGQVVSREGQGRQETLFRCIRSMPSHPDRAYNSCYSAGVFHLHQGDILSVIIPRAAAKLNLSPHGTFLGFVKL
notes: FLAG-tagged soluble variant used as 293T conditioned medium; predicted TACI-selective; member of group m13; also called APRIL-R233A
binding result [1]: binds
binding result [2]: binds

B5: human BCMA-Fc (Fc fusion, UniProt Q02223 2-54, looked up)
chain: LQMAGQCSQNEYFDSLLHACIPCQLRCSSNTPPLTCQRYCNASVTNSVKGTNA
modifications: cysteine pairing not given here; also: fused to human IgG1 Fc, construct limits, linker and order not given here
notes: Generated in-house; not shown: Fc portion of human IgG1
Kd [3]: 0.38 nM
koff [3]: 0.0002 s⁻¹
kon [3]: 530000 M⁻¹ s⁻¹

B7: T175F (ligand)
soluble APRIL monomer: AVLTQKQKKQHSVLHLVPINATSKDDSDVTEVMWQPALRRGRGLQAQGYGVRIQDAGVYLLYSQVLFQDVFFTMGQVVSREGQGRQETLFRCIRSMPSHPDRAYNSCYSAGVFHLHQGDILSVIIPRARAKLNLSPHGTFLGFVKL
notes: FLAG-tagged soluble variant used as 293T conditioned medium; predicted TACI-selective; member of group m13; also called APRIL-T175F
binding result [4]: no binding
binding result [1]: binds

Binder: B8
Kd [3]: 4.4 nM
koff [3]: 0.00075 s⁻¹
kon [3]: 170000 M⁻¹ s⁻¹

Binder: B10
Kd [3]: 0.14 nM
koff [3]: 0.00013 s⁻¹
kon [3]: 890000 M⁻¹ s⁻¹

B11: R233E (ligand)
soluble APRIL monomer: AVLTQKQKKQHSVLHLVPINATSKDDSDVTEVMWQPALRRGRGLQAQGYGVRIQDAGVYLLYSQVLFQDVTFTMGQVVSREGQGRQETLFRCIRSMPSHPDRAYNSCYSAGVFHLHQGDILSVIIPRAEAKLNLSPHGTFLGFVKL
notes: FLAG-tagged soluble variant used as 293T conditioned medium; predicted TACI-selective; member of group m13; also called APRIL-R233E
binding result [1]: binds
binding result [2]: binds

Other lines, results leading:

binding result [1]: binds
binding result [2]: binds
B3: D132A (ligand)
soluble APRIL monomer: AVLTQKQKKQHSVLHLVPINATSKDDSAVTEVMWQPALRRGRGLQAQGYGVRIQDAGVYLLYSQVLFQDVTFTMGQVVSREGQGRQETLFRCIRSMPSHPDRAYNSCYSAGVFHLHQGDILSVIIPRARAKLNLSPHGTFLGFVKL
notes: FLAG-tagged soluble variant used as 293T conditioned medium; predicted TACI-selective; member of group m13; also called APRIL-D132A

binding result [1]: binds
B4: APRIL-D132Y (FLAG-tagged soluble variant) (ligand)
chain: AVLTQKQKKQHSVLHLVPINATSKDDSYVTEVMWQPALRRGRGLQAQGYGVRIQDAGVYLLYSQVLFQDVTFTMGQVVSREGQGRQETLFRCIRSMPSHPDRAYNSCYSAGVFHLHQGDILSVIIPRARAKLNLSPHGTFLGFVKL
notes: Used as conditioned medium; not shown: FLAG tag

binding result [1]: binds
B6: APRIL-D132F (FLAG-tagged soluble variant) (ligand)
chain: AVLTQKQKKQHSVLHLVPINATSKDDSFVTEVMWQPALRRGRGLQAQGYGVRIQDAGVYLLYSQVLFQDVTFTMGQVVSREGQGRQETLFRCIRSMPSHPDRAYNSCYSAGVFHLHQGDILSVIIPRARAKLNLSPHGTFLGFVKL
notes: as for B4

binding result [1]: binds
binding result [2]: binds
B9: APRIL-H241T (FLAG-tagged soluble variant) (ligand)
chain: AVLTQKQKKQHSVLHLVPINATSKDDSDVTEVMWQPALRRGRGLQAQGYGVRIQDAGVYLLYSQVLFQDVTFTMGQVVSREGQGRQETLFRCIRSMPSHPDRAYNSCYSAGVFHLHQGDILSVIIPRARAKLNLSPTGTFLGFVKL
notes: not shown: FLAG tag
